Source: patent US8993253

Target: T1, Chromogenic polypeptide Val-Arg-[pABA]-Gly
T1 chain: VRXG

B1: papain (protein)
chain: IPEYVDWRQKGAVTPVKNQGSCGSCWAFSAVVTIEGIIKIRTGNLNEYSEQELLDCDRRSYGCNGGYPWSALQLVAQYGIHYRNTYPYEGVQRYCRSREKGPYAAKTDGVRQVQPYNEGALLYSIANQPVSVVLEAAGKDFQLYRGGIFVGPCGNKVDHAVAAVGYGPNYILIKNSWGTGWGENGYIRIKRGTGNSYGVCGLYTSSFYPVKN
- colour change with DMAC after proteolysis (booklet assay): after ten minutes DMAC changed from yellow to red
